Laboratory results published in paper PMC3483115 (The Journal of General Physiology, 2012).

Target: calmodulin (CaM), wild type (UniProt P0DP23 1-149)
Test: SEC

EGVKRTLSFSLRSGRVSGRNWKNFALVPLLRDAST [TRPV1-CT35 (TRPV1 C-terminal residues 767–801)]: binds.
